# T1: DmTHAP R66A (Drosophila melanogaster, UniProt Q7M3K2 1-77, R66A)
# T1 sequence: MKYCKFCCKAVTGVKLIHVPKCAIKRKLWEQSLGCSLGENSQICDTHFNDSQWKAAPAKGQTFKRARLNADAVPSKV
# T2: DmTHAP dY2,K3 (Drosophila melanogaster, UniProt Q7M3K2 1-77, del2-3)
# T2 sequence: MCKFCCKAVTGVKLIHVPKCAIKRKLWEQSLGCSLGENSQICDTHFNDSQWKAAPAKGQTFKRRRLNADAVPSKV
# T3: DmTHAP Q42A (Drosophila melanogaster, UniProt Q7M3K2 1-77, Q42A)
# T3 sequence: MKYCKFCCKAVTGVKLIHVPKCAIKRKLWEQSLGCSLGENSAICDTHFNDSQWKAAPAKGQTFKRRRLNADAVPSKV
# T4: DmTHAP H18A (Drosophila melanogaster, UniProt Q7M3K2 1-77, H18A)
# T4 sequence: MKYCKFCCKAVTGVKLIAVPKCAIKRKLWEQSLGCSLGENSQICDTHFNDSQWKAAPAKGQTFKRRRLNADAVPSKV
# T5: DmTHAP H18A Q42A (Drosophila melanogaster, UniProt Q7M3K2 1-77, H18A;Q42A)
# T5 sequence: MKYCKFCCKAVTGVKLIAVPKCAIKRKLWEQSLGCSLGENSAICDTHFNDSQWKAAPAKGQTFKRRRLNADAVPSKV
# T6: DmTHAP R65A (Drosophila melanogaster, UniProt Q7M3K2 1-77, R65A)
# T6 sequence: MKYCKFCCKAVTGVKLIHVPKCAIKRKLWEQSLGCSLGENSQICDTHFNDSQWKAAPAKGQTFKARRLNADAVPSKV
# T7: DmTHAP R65A R67A (Drosophila melanogaster, UniProt Q7M3K2 1-77, R65A;R67A)
# T7 sequence: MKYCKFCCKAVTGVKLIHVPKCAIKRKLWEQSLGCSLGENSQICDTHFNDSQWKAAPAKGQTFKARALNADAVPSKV
# T8: DmTHAP R67A (Drosophila melanogaster, UniProt Q7M3K2 1-77, R67A)
# T8 sequence: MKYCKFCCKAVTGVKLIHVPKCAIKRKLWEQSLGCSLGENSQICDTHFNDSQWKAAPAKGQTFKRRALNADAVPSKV
# T9: DmTHAP (P element transposase THAP domain) (Drosophila melanogaster, UniProt Q7M3K2 1-77)
# T9 sequence: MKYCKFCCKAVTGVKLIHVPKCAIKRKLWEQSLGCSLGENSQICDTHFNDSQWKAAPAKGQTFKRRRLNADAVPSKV
# Legend:
# Assay in all cases: EMSA
# DmTHAP R66A = target: T1, DmTHAP R66A
# DmTHAP dY2,K3 = target: T2, DmTHAP dY2,K3
# DmTHAP Q42A = target: T3, DmTHAP Q42A
# DmTHAP H18A = target: T4, DmTHAP H18A
# DmTHAP H18A Q42A = target: T5, DmTHAP H18A Q42A
# DmTHAP R65A = target: T6, DmTHAP R65A
# DmTHAP R65A R67A = target: T7, DmTHAP R65A R67A
# DmTHAP R67A = target: T8, DmTHAP R67A
# [1] = target: T9, DmTHAP (P element transposase THAP …)
binder,measurement,setting,value
15mer duplex with transposase site (dsDNA) DNA 1: GAGGTTAAGTGGATGT DNA 2: TACATCCACTTAAC,binding result,DmTHAP R66A,no binding
same,binding signal,"DmTHAP dY2,K3",~3 fold reduction in affinity vs WT
same,binding signal,DmTHAP Q42A,~15 fold reduction in affinity vs WT
same,binding signal,DmTHAP H18A,~12 fold reduction in affinity vs WT
same,binding signal,DmTHAP H18A Q42A,~20 fold reduction in affinity vs WT
same,binding signal,DmTHAP R65A,~21 fold reduction in affinity vs WT
same,binding signal,DmTHAP R65A R67A,~42 fold reduction in affinity vs WT
same,binding signal,DmTHAP R67A,~17 fold reduction in affinity vs WT
same,binding signal,[1],1 fold reduction in affinity vs WT (reference)

# From publication PMC2933787
